Data on two molecules can be found in PMC10397247.

Test [1] deals with T1, P8bHq.
T1 chain: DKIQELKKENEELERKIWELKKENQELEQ
Briefly: two-hybrid library CCNG1.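 Note: natural log of median RNA to DNA barcode read ratio; higher means stronger binding.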

Test [2] has as its target T2, P9bHq.
T2 chain: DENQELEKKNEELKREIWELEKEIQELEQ
Briefly: two-hybrid library CCNG1.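 Note: natural log of median RNA to DNA barcode read ratio; higher means stronger binding.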

The target in test [3] is T3, 4H993-AA.
T3 chain: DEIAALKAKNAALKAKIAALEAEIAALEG
Briefly: two-hybrid library CCmax.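 Note: natural log of median RNA to DNA barcode read ratio; higher means stronger binding.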 As to conditions: mean of both orientations.

In test [4] the target is T4, 4H2949-AA.
T4 chain: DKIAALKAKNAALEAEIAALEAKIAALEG
Briefly: two-hybrid library CCmax.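 Note: natural log of median RNA to DNA barcode read ratio; higher means stronger binding.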 As to conditions: mean of both orientations.

For test [5], the target named is T5, 4H2078-AA.
T5 chain: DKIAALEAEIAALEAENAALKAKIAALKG
Put plainly: two-hybrid library CCmax.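 Note: natural log of median RNA to DNA barcode read ratio; higher means stronger binding.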

Test [6] addresses T6, 4H678-AA.
T6 chain: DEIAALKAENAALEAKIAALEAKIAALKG
Put plainly: two-hybrid library CCmax.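 Note: natural log of median RNA to DNA barcode read ratio; higher means stronger binding.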 Conditions: mean of both orientations.

The target in test [7] is T7, 4H2729-AA.
T7 chain: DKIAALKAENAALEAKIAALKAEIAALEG
Put plainly: two-hybrid library CCmax. Conditions: mean of both orientations.

The target in test [8] is T8, 4H3844-AA.
T8 chain: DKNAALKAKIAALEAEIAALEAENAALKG
Put plainly: two-hybrid library CCmax. Conditions: mean of both orientations.

The target of test [9] is T9, 4H2883-AA.
T9 chain: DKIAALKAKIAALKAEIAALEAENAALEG
Briefly: two-hybrid library CCmax. As to conditions: mean of both orientations.

Test [10] deals with T10, 4H2837-AA.
T10 chain: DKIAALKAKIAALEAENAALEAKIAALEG
Briefly: two-hybrid library CCmax. As to conditions: mean of both orientations.

Test [11] concerns the target T11, 4H454-AA.
T11 chain: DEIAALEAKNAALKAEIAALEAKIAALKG
Briefly: two-hybrid library CCmax. As to conditions: mean of both orientations.

Test [12] concerns the target T12, 4H881-AA.
T12 chain: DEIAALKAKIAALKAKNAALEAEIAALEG
Briefly: two-hybrid library CCmax. As to conditions: mean of both orientations.

Test [13] deals with T13, 4H234-AA.
T13 chain: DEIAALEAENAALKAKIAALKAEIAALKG
Put plainly: two-hybrid library CCmax. As to conditions: mean of both orientations.

For test [14], the target named is T14, 4H2393-AA.
T14 chain: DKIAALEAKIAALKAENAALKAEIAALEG
Briefly: two-hybrid library CCmax. As to conditions: mean of both orientations.

Test [15] concerns the target T15, 4H3606-AA.
T15 chain: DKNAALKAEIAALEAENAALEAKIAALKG
Put plainly: two-hybrid library CCmax. As to conditions: mean of both orientations.

In test [16] the target is T16, 4H2354-AA.
T16 chain: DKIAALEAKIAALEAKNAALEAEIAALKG
Put plainly: two-hybrid library CCmax. As to conditions: mean of both orientations.

The target in test [17] is T17, 4H2466-AA.
T17 chain: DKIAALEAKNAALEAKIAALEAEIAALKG
Put plainly: two-hybrid library CCmax. Conditions: mean of both orientations.

The target of test [18] is T18, 4H3655-AA.
T18 chain: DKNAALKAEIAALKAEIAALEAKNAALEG
Briefly: two-hybrid library CCmax.

Test [19] deals with T19, 4H3921-AA.
T19 chain: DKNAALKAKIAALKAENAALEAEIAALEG
Put plainly: two-hybrid library CCmax. As to conditions: mean of both orientations.

In test [20] the target is T20, 4H2277-AA.
T20 chain: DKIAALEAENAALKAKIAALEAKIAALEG
Put plainly: two-hybrid library CCmax. As to conditions: mean of both orientations.

Test [21] deals with T21, 4H717-AA.
T21 chain: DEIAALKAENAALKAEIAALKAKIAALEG
Briefly: two-hybrid library CCmax. Conditions: mean of both orientations.

Test [22] addresses T22, 4H566-AA.
T22 chain: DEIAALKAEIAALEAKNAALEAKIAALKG
Put plainly: two-hybrid library CCmax. Conditions: mean of both orientations.

Test [23] has as its target T23, 4H2505-AA.
T23 chain: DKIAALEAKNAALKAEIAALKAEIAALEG
Put plainly: two-hybrid library CCmax. As to conditions: mean of both orientations.

The target in test [24] is T24, 4H335-AA.
T24 chain: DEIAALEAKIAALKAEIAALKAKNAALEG
Briefly: two-hybrid library CCmax. As to conditions: mean of both orientations.

For test [25], the target named is T25, 4H2642-AA.
T25 chain: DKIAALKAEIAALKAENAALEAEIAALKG
Briefly: two-hybrid library CCmax. Conditions: mean of both orientations.

The target of test [26] is T26, 4H780-AA.
T26 chain: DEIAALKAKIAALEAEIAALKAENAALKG
Briefly: two-hybrid library CCmax. As to conditions: mean of both orientations.

Test [27] has as its target T27, 4H3627-AA.
T27 chain: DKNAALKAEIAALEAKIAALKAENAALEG
Put plainly: two-hybrid library CCmax. Conditions: mean of both orientations.

The target in test [28] is T28, 4H3427-AA.
T28 chain: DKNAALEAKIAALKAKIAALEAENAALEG
Briefly: two-hybrid library CCmax. As to conditions: mean of both orientations.

Test [29] deals with T29, 4H2165-AA.
T29 chain: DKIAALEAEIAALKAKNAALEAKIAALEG
Briefly: two-hybrid library CCmax. Conditions: mean of both orientations.

Test [30] deals with T30, 4H2944-AA.
T30 chain: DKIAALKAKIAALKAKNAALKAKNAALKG
Briefly: two-hybrid library CCmax. Conditions: mean of both orientations.

Test [31] has as its target T31, 4H3112-AA.
T31 chain: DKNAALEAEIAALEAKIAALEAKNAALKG
Put plainly: two-hybrid library CCmax. As to conditions: mean of both orientations.

Test [32] deals with T32, 4H2575-AA.
T32 chain: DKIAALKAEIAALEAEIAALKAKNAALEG
Briefly: two-hybrid library CCmax. Conditions: mean of both orientations.

For test [33], the target named is T33, 4H2754-AA.
T33 chain: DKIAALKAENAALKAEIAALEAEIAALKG
Briefly: two-hybrid library CCmax. As to conditions: mean of both orientations.

The target of test [34] is T34, 4H317-AA.
T34 chain: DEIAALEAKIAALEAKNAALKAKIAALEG
Put plainly: two-hybrid library CCmax. Conditions: mean of both orientations.

In test [35] the target is T35, 4H249-AA.
T35 chain: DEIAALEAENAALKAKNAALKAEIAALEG
Put plainly: two-hybrid library CCmax.

The target of test [36] is T36, 4H342-AA.
T36 chain: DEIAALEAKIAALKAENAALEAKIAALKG
Put plainly: two-hybrid library CCmax. Conditions: mean of both orientations.

The target in test [37] is T37, 4H605-AA.
T37 chain: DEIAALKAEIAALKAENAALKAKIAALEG
Briefly: two-hybrid library CCmax. As to conditions: mean of both orientations.

Test [38] deals with T38, 4H2151-AA.
T38 chain: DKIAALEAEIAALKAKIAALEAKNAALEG
Briefly: two-hybrid library CCmax. As to conditions: mean of both orientations.

Test [39] deals with T39, 4H2617-AA.
T39 chain: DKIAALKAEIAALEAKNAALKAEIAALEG
Briefly: two-hybrid library CCmax. As to conditions: mean of both orientations.

Test [40] addresses T40, 4H429-AA.
T40 chain: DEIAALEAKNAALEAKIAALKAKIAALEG
Briefly: two-hybrid library CCmax. Conditions: mean of both orientations.

The target of test [41] is T41, 4H2190-AA.
T41 chain: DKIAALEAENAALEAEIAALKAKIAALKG
Briefly: two-hybrid library CCmax. Conditions: mean of both orientations.

Test [42] addresses T42, 4H3343-AA.
T42 chain: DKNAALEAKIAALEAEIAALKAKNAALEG
Put plainly: two-hybrid library CCmax. As to conditions: mean of both orientations.

Test [43] deals with T43, 4H48-AA.
T43 chain: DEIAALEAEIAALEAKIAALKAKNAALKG
Briefly: two-hybrid library CCmax. As to conditions: mean of both orientations.

Test [44] concerns the target T44, 4H794-AA.
T44 chain: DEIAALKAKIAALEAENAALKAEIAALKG
Put plainly: two-hybrid library CCmax. Conditions: mean of both orientations.

Test [45] concerns the target T45, 4H906-AA.
T45 chain: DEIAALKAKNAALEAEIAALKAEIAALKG
Briefly: two-hybrid library CCmax. As to conditions: mean of both orientations.

As for DKIQELKKENEELERKIWELKKENQELEQ [P8bHq], the interaction score in test [1] was -0.229; in [2] it was -1.36.

With DKIAALEAEIAALEAENAALKAKIAALKG [4H2078-AA], the interaction score in test [3] is -1.03; in [4], -1.02; in [5], 1.98; in test [6], -0.466; in test [7], 0.661; in test [8], -0.801. Besides, the interaction score in test [9] was 0.158; in [10] it was 1.93; in test [11] it was -0.599; in [12], 2.31; in test [13], -0.505; in test [14], 2.47. The interaction score in test [15] is -0.297; in test [16], -0.00435; in test [17] it was -0.982; in test [18], -1.22; in [19], 2.02; in [20], -1.09. Also, the interaction score in test [21] is -1.62; in [22], -1.05; in test [23], 1.62; in test [24], 0.35; in [25], 2.25; in [26] it was -1.14. The interaction score in test [27] is -0.14; in test [28], -0.664; in test [29] it was 0.246; in test [30], 0.298; in test [31], -0.952; in test [32] it was -0.721. Besides, the interaction score is 0.637 in [33]; 1.93 in test [34]; 0.347 in [35]; 2.14 in test [36]; 1.68 in [37]; -1.39 in test [38]. In addition, the interaction score is 2.35 in [39]; 1.79 in test [40]; 1.33 in test [41]; -1.08 in test [42]; 0.504 in test [43]; 1.84 in test [44]. The same molecule came in with an interaction score in test [45] of -0.59.
